In patent publication US20100273983A1, “METHOD OF PURIFYING PEPTIDES BY SELECTIVE PRECIPITATION” (The University of Queensland, priority 2007, published 2010):

Experiments:
Format in all cases: physicochemical
[1] = Ethanol precipitation of AM1-spiked E. coli cell lysate supernatant containing MBP; AM1 in supernatants and pellets by RP-HPLC
Description: For the precipitation with ethanol the cell lysate supernatant was spiked with chemically synthesized AM1 peptide to a final concentration of 0.286 μg AM1 per μL. AM1 was custom synthesized by Genscript (Piscataway, USA). The purity was >95% by reversed-phase high performance liquid chromatography. The peptide was stored in a lyophilized form and was dissolved in 0.1% v/v TFA prior to use (cAm1=1 mg/mL).
For the ethanol precipitation experiment, 420 μL of AM1 (in 0.1% v/v TFA, 1 μg/μL) was added to 1050 μL of lysate supernatant and mixed by vortexing. The samples were prepared with different ethanol concentrations ranging from 50-75% (v/v).
The samples were incubated on a roller mixer at speed adjustment 7.5 for 17 h. The tubes were centrifuged at 15,000 rpm for 10 min. […] The protein present in the urea dissolved pellets, as well as the supernants was directly analyzed by Bradford and SDS-PAGE.
For quantitative analysis of AM1 peptide in the supernatants and pellets, reversed-phase high performance liquid chromatography (RP-HPLC) was used with an analytical C18 column (Jupiter 00F-4053-E0, Phenomenex, UK). […]
The retention time of AM1 at the above mentioned elution gradient and flow rate was tR=21.5 min. […] The following equation was used to determine the amount of AM1 in the supernatants and pellets as a function of the peak area detected by RP-HPLC: Detected peak area/1207925=μg of AM1 peptide.

[2] = Solvent (ethanol/acetone) precipitation of TEVp cleaved Trx-P11-2 homogenate; peptide in supernatants and pellets by HPLC
[3] = Stability of peptide and fusion protein in cell homogenate (TEVp cleavage reactions, HPLC/SDS-PAGE); conditions: homogenate without heat-treatment; degradation most likely by cellular proteases
Description: All cleavage reactions were performed with recombinant TEVp, using homogenate prepared as above, where the Trx-P11-2 content had been HPLC quantified. Cleavage reactions were performed in TEVp reaction buffer, at room temperature, in sealed tubes that had been purged of air with nitrogen. All reactions were stopped by the addition of equal volumes of either 6 M guanidine hydrochloride or 2×SDS-PAGE sample buffer and analyzed by HPLC (to quantify peptide generation) and SDS-PAGE (to confirm cleavage of the fusion protein), respectively.
Homogenate was heat-treated by incubating samples in a water bath at 55° C. for 15 min. […] The effect on the stability of the P11-2 peptide was analyzed by comparing cleavage reactions (at 0, 1, 2 and 3 h) with a final substrate concentration of 160 μM Trx-P11-2 and 8 μM TEVp, prepared with heat-treated and non heat-treated homogenate. […] The effect of salt on enzyme activity was assessed by analyzing cleavage reactions prepared with 8 μM TEVp and 320 μM Trx-P11-2, that were supplemented with either 50, 150 or 250 mM NaCl. These cleavage reactions were analyzed at 0, 1, 2 and 3 h by SDS-PAGE and HPLC. […] The supernatants were diluted with water to reduce the percentage of ethanol and analyzed by HPLC.

[4] = Solvent (ethanol/acetone) precipitation of TEVp cleaved Trx-P11-2 homogenate; peptide in supernatants and pellets by HPLC; remark: listed apart in the source
Description: Homogenate was heat-treated by incubating samples in a water bath at 55° C. for 15 min. The effect on the solubility of the fusion protein was assessed by SDS-PAGE and HPLC analysis of heat-treated homogenate before and after centrifugation (10000×g, 10 min). The effect on the stability of the P11-2 peptide was analyzed by comparing cleavage reactions (at 0, 1, 2 and 3 h) with a final substrate concentration of 160 μM Trx-P11-2 and 8 μM TEVp, prepared with heat-treated and non heat-treated homogenate. Conditions were optimized by evaluating reactions prepared with 8 μM TEVp and 160, 240 and 320 μM Trx-P11-2 after 0, 1, 2 and 3 h. The effect of salt on enzyme activity was assessed by analyzing cleavage reactions prepared with 8 μM TEVp and 320 μM Trx-P11-2, that were supplemented with either 50, 150 or 250 mM NaCl. These cleavage reactions were analyzed at 0, 1, 2 and 3 h by SDS-PAGE and HPLC. After 3 h, ethanol was added to a final concentration of 75% (v/v) and samples were incubated at room temperature for 10 min before centrifuging at 10 000×g for 5 min. The supernatants were diluted with water to reduce the percentage of ethanol and analyzed by HPLC.
All precipitation experiments were performed with the same batch of Trx-P11-2, cleaved with a 40:1 (substrate:enzyme) molar ratio, a substrate concentration of 320 μM (5.12 mg ml^−1) and in the presence of 250 mM NaCl. The precipitation samples were centrifuged for 5 min at 10000×g, and the supernatants collected and analyzed by HPLC to quantify the peptide present. The pellets were resuspended in 6 M guanidine hydrochloride to the same volume as the supernatants, and analysed by HPLC. Acetone and ethanol precipitations were performed using HPLC grade ethanol and acetone, which was added to samples to final concentrations of 20, 40, 60, 65, 70, 75, 80, and 85% (v/v) before incubating for 10 min at room temperature and centrifuging for 5 min at 10000×g. The supernatants were collected and dried using an RVC 2-18 speed-vac (Christ, Osterode, Germany), the pellets were air-dried and both were resuspended in 6 M guanidine hydrochloride. The samples were analyzed by HPLC to quantify the peptide and Bradford assay to quantify the total protein remaining. The peptide and protein remaining in the pellets and supernatants were compared to the results obtained for the starting cleavage reactions to determine the percentages of peptide and protein in each fraction.
Reversed-phase HPLC(RP-HPLC) was carried out using an analytical C5 column (Jupiter, 150 mm×4.6 mm, 5μ, 300 Å) (Phenomenex, Torrance, Calif., USA) connected to a LC-10Avp series HPLC system (Shimadzu, Kyoto, Japan) with a mobile phase A, 0.1% (v/v) trifluoroacetic acid (TFA) in water and B, 90% (v/v) acetonitrile, 0.1% (v/v) TFA in water. Initial analysis of fusion protein and cleavage was performed using a linear gradient from 10% B to 60% B in 50 min at a flow rate of 1 ml min^−1. Peptides were analyzed, collected and quantified using a linear gradient from 10% B to 35% B in 25 min. Final peptide preparation was assessed using a linear gradient from 10% B to 90% B in 80 min. All samples were diluted 1:2 in 6 M guanidine-HCl prior to injection for the purpose of column preservation unless stated otherwise.

| Substance | percentage of AM1 present in the precipitate ([1]; ethanol 50-75% (v/v), 23° C., 17 h, relative to AM1 in starting material) | peptide in the original lysate recovered from the supernatant ([1]; precipitation at greater than 65% (v/v) ethanol) | solubility of purified peptide at high solvent concentrations ([2]; purified peptide, results not shown) | behaviour of peptide on solvent precipitation without salt ([2]; standard TEVp reaction buffer (10 mM Tris-Cl, 0.5 mM EDTA, 5 mM DTT, pH 8.0), in homogenate) | stability in homogenate [3] | yield of peptide in the supernatant after precipitation ([4]; 50 mM NaCl, 75% (v/v) ethanol) | yield of peptide in the supernatant after precipitation ([4]; 150 mM NaCl, 75% (v/v) ethanol) | yield of peptide in the supernatant after precipitation ([4]; 250 mM NaCl, 75% (v/v) ethanol) | peptide losses on acetone precipitation ([4]; 75% (v/v) acetone, 250 mM salt) | peptide yield on ethanol precipitation ([4]; 75% (v/v) ethanol, 250 mM salt) | solubility of peptide in acetone ([4]; 85% (v/v) acetone, 250 mM salt) | losses of peptide on ethanol precipitation ([4]; 85% (v/v) ethanol, 250 mM salt) | yield of peptide after removal of contaminating proteins with solvent precipitation ([4]; finalized process, 1 L culture, 75% (v/v) ethanol, 250 mM NaCl) | losses of peptide on precipitation ([4]; room temperature, 70-75% (v/v) ethanol or acetone, 250 mM salt) |
| --- | --- | --- | --- | --- | --- | --- | --- | --- | --- | --- | --- | --- | --- | --- |
| Ac-MKQLADSLHQLARQVRSLEHA-CONH2 (Ac-MKQLADSLHQLARQVRSLEHA-NH2) [AM1] | approximately 5% | Over 80% |  |  |  |  |  |  |  |  |  |  |  |  |
| QQRFQWQFEQQ [P11-2] |  |  | soluble | co-precipitated with the contaminating proteins | quickly degraded | 55% | 81% | 95% | exceeding 30% | over 90% | almost completely insoluble | > 70% | 95% | < 5% |
